From PMC5817723, “^99mTc-HYNIC-(tricine/EDDA)-FROP peptide for MCF-7 breast tumor targeting and imaging” (Journal of Biomedical Science, 2018)
Like-named read-outs stand apart in the source and are kept apart here. Residues, ends and D or L forms follow the SMILES beside them. *: point of attachment. HYNIC = NNc1ccc(C(=O)*)cn1

How the values were obtained:
MCF-7 cells [1] = assay: Internalization study in MCF-7 cells; type: cell-based, human; settings: MCF-7, 40 nM, acid wash urea buffer pH 2.5
Method: For internalization experiment, MCF-7 cells (1 × 10^6 cells) were seeded on the single plates and incubated with ^99mTc-HYNIC-FROP (40 nM) at 4 °C. After 1 h incubation, medium was removed and cells were washed with ice-cold serum free medium. Then 1 mL complete medium was added to each dish and cells were further incubated for 0.5, 1, 2, 6 and 24 h at 37 °C. After incubation, medium was removed from cellular plate and then was washed once with cold serum free medium. Then supernatant was collected, and for removing radioactivity bound to the surface of the cells, the acid wash with urea buffer (pH 2.5) was used. The internalized radiolabeled peptide was recovered by solubilizing the cells with 1 M NaOH at 37 °C for 5 min, and the surface-bound (acid-wash) and internalized (acid-resistant) radioactivity were measured with the gamma counter.

[2] = In vitro stability in succinate buffer (peptide reaction mixture), %RCP by ITLC; type: physicochemical; settings: room temperature, TLC, n = 3
Method: The radiochemical purity was determined by instant thin layer chromatography (ITLC) in different mobile phases such as methyl ethyl ketone (MEK), acetonitrile/water (50/50) and citrate solvent (0.1 M, pH 5.2) using a Lablogic mini scan TLC scanner (Sheffield, UK) and Laura image analysis software. In MEK, free ^99mTcO4^− migrated with the solvent front, while radiolabeled peptide remained at the application point. In the acetonitrile/water system, the colloids remained at the application point, while radiolabeled peptide migrated in front of solvent. The amount of labeled co-ligand was determined by citrate solvent, that free ^99mTcO4 Na and labeled co-ligand migrate in front of solvent while both RHT and labeled peptide (^99mTc-FROP) remind at the origin. A NaI (Tl) gamma detector (Delshid, Tehran, Iran) was used to for measurement of radioactivity.
[…] For serum stability, ^99mTc-HYNIC-FROP (30 μL) was incubated with freshly human plasma serum (90 μL) in triplicate at 37 °C. At 1 h of incubation, the plasma proteins were precipitated with a mixture of acetonitrile/ethanol (1:1 v/v) and centrifugation. The supernatant layer was filtered through a 0.22 μm filter and then the fraction was analyzed by RP-HPLC. Partition coefficient of ^99mTc-HYNIC-FROP was determined via method that previously was described.

MCF-7 cells [3] = assay: In vitro specific binding (blocking) on MCF-7 cells; type: cell-based, human; settings: pre-saturation 0.5 h at 37 °C with unlabeled FROP
Method: For specific binding experiment, the MCF-7 cells were saturated with 500-fold excess of unlabeled peptide prior adding of the ^99mTc-HYNIC-FROP to cells for 30 min.

[4] = Biodistribution in MCF-7 tumor-bearing nude mice; type: in vivo; settings: female, C57 nu/nu, mouse, iv, total radioactivity; for tissue uptake at 0.5 h / tissue to tissue ratio at 0.5 h: 30 min p.i.
Method: The all animal studies were approved by Research and Ethical Committees of Mazandaran University of Medical Sciences. For xenografting, female C57 nu/nu mice were injected subcutaneously on the right upper back with a suspension of 1 × 10^7 MCF-7 cells and Matrigel® (BD, USA) and the tumors were allowed to grow for about 7–8 weeks. Estradiol valerate was injected subcutaneously into nude mice for 1 week. After tumor size reached in 1 cm^3, this tumor was removed from mouse in aseptic condition and was mechanically squelched with a mortar and with adding complete medium. Squelch of tumor tissue was centrifuged at 1500 rpm for 7 min at 4 °C. The upper medium was removed from tube and then complete medium and estradiol were added to cells pellet. […] Xenografts were allowed to develop during 2 months and the average tumor size was 1.01 ± 0.24 g. The in vivo biodistribution of ^99mTc-HYNIC-(tricine/EDDA)-Lys-FROP was performed on tumor bearing mice at 15 and 30 min post-injection. The mice (four mice in each time group) were injected with 100 μL of HYNIC-(tricine/EDDA)-Lys-FROP (1 μg) via a lateral tail vein. Mice were sacrificed with injection of a lethal dose of ketamine/xylazine after 15 and 30 min. The blood was collected from the heart puncture and the mice were dissected. Major organs (tumor, blood, heart, lung, liver, kidney, spleen, salivary gland, stomach, intestine, muscle and bone) were placed into pre weighed gamma counter tubes and radioactivity in each organ and tissue was measured using a gamma counter and expressed as a percent injected dose (% ID/g).
To confirm that the radiolabeled peptide was taken up specifically by MCF-7 tumor in vivo, the biodistribution of ^99mTc-HYNIC-FROP was performed with co-injection of a 500-fold (0.5 mg) excess non-radiolabelled FROP-1 and radiolabelled peptide in mice (N = 3 mice in this group). The unlabeled peptide was injected at 30 min before the injection of radiolabeled peptide.

## CSCC[C@H](NC(=O)[C@H](CC(C)C)NC(=O)[C@H](CCC(=O)O)NC(=O)[C@H](Cc1ccc(O)cc1)NC(=O)[C@H](CC(=O)O)NC(=O)[C@@H](N)CCC(=O)O)C(=O)N[C@@H](CC(=O)O)C(=O)N[C@@H](CC(C)C)C(=O)N[C@@H](CC(C)C)C(=O)N[C@@H](C)C(=O)N[C@@H](Cc1ccc(O)cc1)C(=O)N[C@@H](CC(C)C)C(=O)N[C@@H](CCCCNC(=O)c1ccc(NN)nc1)C(=O)O [^99mTc-HYNIC-FROP, metal not drawn] (H-EDYELMDLLAYLK(HYNIC)-OH)
MCF-7 cells [1]; 1 h at 4 °C then 30 min at 37 °C
  internalized radiolabeled peptide, % of the total radioactivity in the cells: 10.6 ± 0.8%
MCF-7 cells [1]; 1 h at 4 °C then 6 h at 37 °C
  internalized radiolabeled peptide, % of the total radioactivity in the cells: 18.3 ± 2.3%
[2]; 2 h
  %RCP in succinate buffer (peptide reaction mixture): 99.6 ± 0.2%
[2]; 4 h
  %RCP in succinate buffer (peptide reaction mixture): 99.5 ± 0.4%
[2]; 6 h
  %RCP in succinate buffer (peptide reaction mixture): 99.1 ± 0.9%
[2]; 24 h
  %RCP in succinate buffer (peptide reaction mixture): 96.8 ± 2.4%
MCF-7 cells [3]
  binding to MCF-7 cells with 500-fold excess of unlabeled peptide (FROP): significant reduction
[4]; blood, 1 ug, i.v. tail vein 1 μg, 15 min p.i., n = 4, read-out: Blood uptake
  tissue uptake at 0.25 h: 0.48 ± 0.09 %ID/g
[4]; blood, 1 ug, i.v. tail vein 1 μg, n = 4, read-out: Blood uptake
  tissue uptake at 0.5 h: 0.35 ± 0.1 %ID/g
[4]; blood, Block: 500-fold (0.5 mg) excess unlabelled FROP-1, 15 min p.i., n = 3, read-out: Blood uptake
  tissue uptake at 0.25 h: 0.69 ± 0.16 %ID/g
[4]; bone, 1 ug, i.v. tail vein 1 μg, 15 min p.i., n = 4, read-out: Bone uptake
  tissue uptake at 0.25 h: 0.18 ± 0.02 %ID/g
[4]; bone, 1 ug, i.v. tail vein 1 μg, n = 4, read-out: Bone uptake
  tissue uptake at 0.5 h: 0.24 ± 0.12 %ID/g
[4]; heart, 1 ug, i.v. tail vein 1 μg, 15 min p.i., n = 4, read-out: Heart uptake
  tissue uptake at 0.25 h: 0.49 ± 0.08 %ID/g
[4]; heart, 1 ug, i.v. tail vein 1 μg, n = 4, read-out: Heart uptake
  tissue uptake at 0.5 h: 0.26 ± 0.11 %ID/g
[4]; heart, Block: 500-fold (0.5 mg) excess unlabelled FROP-1, 15 min p.i., n = 3, read-out: Heart uptake
  tissue uptake at 0.25 h: 0.45 ± 0.03 %ID/g
[4]; intestine, 1 ug, i.v. tail vein 1 μg, 15 min p.i., n = 4, read-out: Intestine uptake
  tissue uptake at 0.25 h: 0.34 ± 0.09 %ID/g
[4]; intestine, 1 ug, i.v. tail vein 1 μg, n = 4, read-out: Intestine uptake
  tissue uptake at 0.5 h: 0.79 ± 0.25 %ID/g
[4]; intestine, Block: 500-fold (0.5 mg) excess unlabelled FROP-1, 15 min p.i., n = 3, read-out: Intestine uptake
  tissue uptake at 0.25 h: 0.64 ± 0.09 %ID/g
[4]; 1 ug, MCF-7 tumor, i.v. tail vein 1 μg, 15 min p.i., n = 4, read-out: Tumor uptake
  tissue uptake at 0.25 h: 0.25 ± 0.02 %ID/g
[4]; 1 ug, MCF-7 tumor, i.v. tail vein 1 μg, n = 4, read-out: Tumor uptake
  tissue uptake at 0.5 h: 0.38 ± 0.21 %ID/g
[4]; MCF-7 tumor, Block: 500-fold (0.5 mg) excess unlabelled FROP-1, 15 min p.i., n = 3, read-out: Tumor uptake
  tissue uptake at 0.25 h: 0.09 ± 0.02 %ID/g
[4]; kidney, 1 ug, i.v. tail vein 1 μg, 15 min p.i., n = 4, read-out: Kidney uptake
  tissue uptake at 0.25 h: 2.22 ± 0.16 %ID/g
[4]; kidney, 1 ug, i.v. tail vein 1 μg, n = 4, read-out: Kidney uptake
  tissue uptake at 0.5 h: 1.73 ± 0.15 %ID/g
[4]; kidney, Block: 500-fold (0.5 mg) excess unlabelled FROP-1, 15 min p.i., n = 3, read-out: Kidney uptake
  tissue uptake at 0.25 h: 2.97 ± 0.23 %ID/g
[4]; liver, 1 ug, i.v. tail vein 1 μg, 15 min p.i., n = 4, read-out: Liver uptake
  tissue uptake at 0.25 h: 0.2 ± 0.02 %ID/g
[4]; liver, 1 ug, i.v. tail vein 1 μg, n = 4, read-out: Liver uptake
  tissue uptake at 0.5 h: 0.14 %ID/g
[4]; liver, Block: 500-fold (0.5 mg) excess unlabelled FROP-1, 15 min p.i., n = 3, read-out: Liver uptake
  tissue uptake at 0.25 h: 0.26 ± 0.04 %ID/g
[4]; lung, 1 ug, i.v. tail vein 1 μg, 15 min p.i., n = 4, read-out: Lung uptake
  tissue uptake at 0.25 h: 0.45 ± 0.08 %ID/g
[4]; lung, 1 ug, i.v. tail vein 1 μg, n = 4, read-out: Lung uptake
  tissue uptake at 0.5 h: 0.41 ± 0.26 %ID/g
[4]; lung, Block: 500-fold (0.5 mg) excess unlabelled FROP-1, 15 min p.i., n = 3, read-out: Lung uptake
  tissue uptake at 0.25 h: 0.6 ± 0.04 %ID/g
[4]; muscle, 1 ug, i.v. tail vein 1 μg, 15 min p.i., n = 4, read-out: Muscle uptake
  tissue uptake at 0.25 h: 0.08 ± 0.01 %ID/g
[4]; muscle, 1 ug, i.v. tail vein 1 μg, n = 4, read-out: Muscle uptake
  tissue uptake at 0.5 h: 0.21 ± 0.16 %ID/g
[4]; muscle, Block: 500-fold (0.5 mg) excess unlabelled FROP-1, 15 min p.i., n = 3, read-out: Muscle uptake
  tissue uptake at 0.25 h: 0.15 ± 0.01 %ID/g
[4]; salivary gland and thyroid, 1 ug, i.v. tail vein 1 μg, 15 min p.i., n = 4, read-out: S.T (Salivary Gland and Thyroid) uptake
  tissue uptake at 0.25 h: 0.25 ± 0.03 %ID/g
[4]; salivary gland and thyroid, 1 ug, i.v. tail vein 1 μg, n = 4, read-out: S.T (Salivary Gland and Thyroid) uptake
  tissue uptake at 0.5 h: 0.32 ± 0.22 %ID/g
[4]; salivary gland and thyroid, Block: 500-fold (0.5 mg) excess unlabelled FROP-1, 15 min p.i., n = 3, read-out: S.T (Salivary Gland and Thyroid) uptake
  tissue uptake at 0.25 h: 0.25 ± 0.01 %ID/g
[4]; spleen, 1 ug, i.v. tail vein 1 μg, 15 min p.i., n = 4, read-out: Spleen uptake
  tissue uptake at 0.25 h: 0.15 ± 0.01 %ID/g
[4]; spleen, 1 ug, i.v. tail vein 1 μg, n = 4, read-out: Spleen uptake
  tissue uptake at 0.5 h: 0.28 ± 0.11 %ID/g
[4]; spleen, Block: 500-fold (0.5 mg) excess unlabelled FROP-1, 15 min p.i., n = 3, read-out: Spleen uptake
  tissue uptake at 0.25 h: 0.23 ± 0.07 %ID/g
[4]; stomach, 1 ug, i.v. tail vein 1 μg, 15 min p.i., n = 4, read-out: Stomach uptake
  tissue uptake at 0.25 h: 0.21 ± 0.01 %ID/g
[4]; stomach, 1 ug, i.v. tail vein 1 μg, n = 4, read-out: Stomach uptake
  tissue uptake at 0.5 h: 0.33 ± 0.12 %ID/g
[4]; stomach, Block: 500-fold (0.5 mg) excess unlabelled FROP-1, 15 min p.i., n = 3, read-out: Stomach uptake
  tissue uptake at 0.25 h: 0.26 ± 0.01 %ID/g
[4]; tumor and blood, 1 ug, 15 min p.i., n = 4, read-out: Tumor/Blood ratio
  tissue to tissue ratio at 0.25 h: 0.53 ± 0.15
[4]; tumor and blood, 1 ug, n = 4, read-out: Tumor/Blood ratio
  tissue to tissue ratio at 0.5 h: 1.09 ± 0.47
[4]; tumor and blood, Block with excess FROP-1, 15 min p.i., n = 3, read-out: Tumor/Blood ratio
  tissue to tissue ratio at 0.25 h: 0.14 ± 0.06
[4]; tumor and bone, 1 ug, 15 min p.i., n = 4, read-out: Tumor/Bone ratio
  tissue to tissue ratio at 0.25 h: 1.36 ± 0.28
[4]; tumor and bone, 1 ug, n = 4, read-out: Tumor/Bone ratio
  tissue to tissue ratio at 0.5 h: 1.57 ± 0.48
[4]; tumor and bone, Block with excess FROP-1, 15 min p.i., n = 3, read-out: Tumor/Bone ratio
  tissue to tissue ratio at 0.25 h: 0.4 ± 0.09
[4]; tumor and liver, 1 ug, 15 min p.i., n = 4, read-out: Tumor/Liver ratio
  tissue to tissue ratio at 0.25 h: 1.24 ± 0.28
[4]; tumor and liver, 1 ug, n = 4, read-out: Tumor/Liver ratio
  tissue to tissue ratio at 0.5 h: 2.62 ± 1.38
[4]; tumor and liver, Block with excess FROP-1, 15 min p.i., n = 3, read-out: Tumor/Liver ratio
  tissue to tissue ratio at 0.25 h: 0.36 ± 0.13
[4]; tumor and muscle, 1 ug, 15 min p.i., n = 4, read-out: Tumor/Muscle ratio
  tissue to tissue ratio at 0.25 h: 3.03 ± 0.12
[4]; tumor and muscle, 1 ug, n = 4, read-out: Tumor/Muscle ratio
  tissue to tissue ratio at 0.5 h: 1.94 ± 0.46
[4]; tumor and muscle, 1 ug, MCF-7 tumor-bearing nude mice, only 15 and 30 min p.i. tested, read-out: time of maximum tumor/muscle ratio
  tissue to tissue ratio: 15
[4]; tumor and muscle, Block with excess FROP-1, 15 min p.i., n = 3, read-out: Tumor/Muscle ratio
  tissue to tissue ratio at 0.25 h: 0.6 ± 0.12
[4]; tumor and spleen, 1 ug, 15 min p.i., n = 4, read-out: Tumor/Spleen ratio
  tissue to tissue ratio at 0.25 h: 1.61 ± 0.22
[4]; tumor and spleen, 1 ug, n = 4, read-out: Tumor/Spleen ratio
  tissue to tissue ratio at 0.5 h: 1.56 ± 1.04
[4]; tumor and spleen, Block with excess FROP-1, 15 min p.i., n = 3, read-out: Tumor/Spleen ratio
  tissue to tissue ratio at 0.25 h: 0.42 ± 0.14
